The DeepSol protein solubility set

assay: soluble on expression in E. coli; label from the status in PepcDB or PDB records

Q: For “MNVSVLNFGNTPVSFRQDGFLNATAIASHFGKLPKDYLKSEQTQQYISALAENLSVRRKILTEANQIVIVKRGGSEQGTWLHPKLAIHFARWLNPKFAVWCDEQIEILLNGKISDGIKTVTPKPTRALPDGLTGEQIEAVKKLHNALTKSAPKEAQARIAITLWSAVKSKFGCSYKEVPAEQFPEVLSVMGRVAVENGVLYGEVLDREPLPAPQPALPISGNALYDLAVAVRYGAWAIQMGRDVSLPLKQLGCKQAVTMWTVWAETRSRLKAAANALEALNAHADAEHAAKIRPMLPEIRNLSSV”, which “soluble on expression in E. coli” value is on record?
A: not soluble

Q: Which “soluble on expression in E. coli” value does the source give for “SDSDSGEQSEGELSPGHESFNSKSLALQAQKKILSKMATMAVANLLTDDTSSEILDELYKASREYTKSKKEAHKIIKDVIKIALKIGILYRNHQFSPEEMETVERFKKKMNQAAMTVVSFYEVEYTFDRGILSELLLECRDLLHELVEHHLTMRSHGRIDHVFNHFADVDFLTELYGPSEDYRLNLRKICDGINKLLDEGTL” here?
A: soluble

Q: Which “soluble on expression in E. coli” value does the source give for “MSRPDQAKVTVAKGDIKAIAAALDMYKLDNFAYPSTQQGLEALVKKPTGNPQPKNWNKDGYLKKLPVDPWGNPYQYLAPGTKGPFDLYSLGADGKEGGSDNDADIGNWDN” here?
A: soluble

Q: Which “soluble on expression in E. coli” value does the source give for “AASSAQCDFGGPFQAYKSVNGPGNGGYYLRKTTKPGTPECAYVLVPQNTLSEGQSTSFTYGKLQNGQMIQLTATVTVNGDKIEVTGAGQDLSGTTTVLFSDYRSCDVMRGPDGNYELWVHSSAINLQSYGCCDTKFAQVAGGRPIHHTWQTYCPPLP” here?
A: soluble

Q: Which “soluble on expression in E. coli” value does the source give for “PITNGHLDLIERAAQMFDEVIIAVAASPSKNTLFTLEERVEFARQVTSHLDNVSAKGFSGLLVDFAKAEKANVLIRGLRTTVDFEYEFGLTNMYRRLMPGLESVFLTPAEEHAFISSTLVREVAIHGGNVDEFVPAIVANALHQKKKI” here?
A: not soluble

Q: For “MPITKFIWSPSGTGLSEHAWATSESTGAAWVGNDAAAHISLLRSTVAEELAVPLEQAGMDAATMQRAVDTAIDTWGLRGQAEQDPMTLSSGQTRRLAIAGALITRPEALVLDCPTDGLDTEAIEILHRIVDSFPGNVTVYDRMHTALATTAAEQLRLTSSGDLVPEPAPDPVDTVSARFTPIDLSTDHGPLLCAKNLRIPRGATTVGPISCEVSPSSVTHLAGLNGTGKTSFFLAALGLVASTGTLQVADGVTMGWAPADMDSALSRRTVATELTVGATPELAQAAIEFMGLEQWADTHPLDVPAAWRRFVLIAAALVRGPHLLLLDEPTVNLDAPNHGHLSLLMHRYCAGEFHRMAGLDLGGHHPAVLFTCHDARYAQAVSTAEIRI”, which “soluble on expression in E. coli” value is on record?
A: not soluble

Q: For “MGSDKIHHHHHHMRETPFRLLLDARACRKKGSAAILQRQRERLVEMVTYARTCSPYYRQLYQGLPARITDPRLLPVTTKAALMAHFDDWVTDPAVTLEGTQSFVADPSLLGEKFLNRYTAATTSGTTGTRGLFLLDTRTLAVSKALTFRMLSSWLTPADLMGIIRGRGRIAMVVATGGHFASAAAAAALRKGPARHSVRVFPVQTPIPDLVAQLNSFRPALLAPYASTGRLLASEQEAGRLTIQPVAVILSAEGLPAGEYARISGAFGAKVRQGYAATECPFLSYSCQEGWLHVNSDWAILEPVDANHEPVPPGQPSHTVLLSNLANRIQPILRYDLGDSVTARTDPCRCGDPTPAIHVQGRNAELLTLQGNRLAVAVTPLTLSTALDRVQGLSKGQIIQTGPQSLSLRLQPAAGADPENVWESARSEITRALTSHGLGNVTITRDAGPPLLTPGGKHRTVVPLPP”, which “soluble on expression in E. coli” value is on record?
A: not soluble

Q: For “SLYDGDCPLCMREVNMLMERNEKHGTIKFVDISSNDYSPEDNQGLDYKTVMGQIHAIQSDGNVVKGVEAFRRLYEEVGLGWVYTITKFEPIGKLADVVYDVWAKYRLQVTGRPSIEAILEARKKDKVGNKGYRFSVVVTFAR”, which “soluble on expression in E. coli” value is on record?
A: soluble

Q: With “MGTRRDVRQEMLDDVQKKLMSLANSSEGKVDKVLMRNLFIGHFHTPKNQRHEVLRLMGSILGVRREEMEQLFHDDQGSVTRWMTGWLGGGSKSVPNTPLRPNQQSVVNSSFSELFVKFLETESHPSIPPPKLSVHDMKPLDSPGRRKRDTNAPESFKDTAESRSGRRTDVNPFLAPRSAAVPLINPAGLGPGGPGIFFLEHHHHHH” as the sequence, how does the “soluble on expression in E. coli” value read?
A: not soluble

Q: For “MSLKAFLPLLFSFFFIISCQQHKEATISPIDEEDELQEEADSLPRATAIFWLDKYHMKELKKDDVLTFRTAKAKVVIRNDGTIDLLSFVEQQPGNAQRYIRYRLKDFKVKKILMDNGYINPGEQYVQLRYIPALARRVKEGHHHHHH”, which “soluble on expression in E. coli” value is on record?
A: soluble

Q: For “MAGLKRRASQVWPEEHGEQEHGLYSLHRMFDIVGTHLTHRDVRVLSFLFVDVIDDHERGLIRNGRDFLLALERQGRCDESNFRQVLQLLRIITRHDLLPYVTLKRRRAVCPDLVDKYLEETSIRYVTPRALSDPEPRPPQPSKTVPPHYPVVCCPTSGPQMCSKRPARGRATLGSQRKRRKSVTPDPKEKQTCDIRLRVRAEYCQHETALQGNVFSNKQDPLERQFERFNQANTILKSRDLGSIICDIKFSELTYLDAFWRDYINGSLLEALKGVFITDSLKQAVGHEAIKLLVNVDEEDYELGRQKLLRNLMLQALPLEHHHHHH”, which “soluble on expression in E. coli” value is on record?
A: not soluble

Q: Which “soluble on expression in E. coli” value does the source give for “MKSMVEMQREVDEYIGQFKTGYFSPLANLARLTEEVGELAREINHTYGEKKKKDSEEANTIKAELGDNLFVLLCLANSMGIDMTESFNETMEKFNTRDKNRFERKLEHHHHHH” here?
A: soluble

Q: Which “soluble on expression in E. coli” value does the source give for “MSALLPIINRLILQSPDSRSELAAFAGKTLTLNIAGLKLAGRITEDGLLSAGNGFADTEITFRNSAVQKILQGGEPGAGDIGLEGDLILGIAVLSLLGSLRSRASDELARIFGTQADIGSRAADIGHGIKQIGRNIAEQIGGFSRESESANIGNEALADCLDEISRLRDGVERLNERLDRLERDIWID” here?
A: not soluble

Q: With “SPVVVVTGASRGIGKAIALSLGKAGCKVLVNYARSAKAAEEVSKQIEAYGGQAITFGGDVSKEADVEAMMKTAIDAWGTIDVVVNNAGITRDTLLIRMKKSQWDEVIDLNLTGVFLCTQAATKIMMKKRKGRIINIASVVGLIGNIGQANYAAAKAGVIGFSKTAAREGASRNINVNVVCPGFIASDMTAKLGEDMEKKILGTIPLGRTGQPENVAGLVEFLALSPAASYITGQAFTIDGGIAI” as the sequence, how does the “soluble on expression in E. coli” value read?
A: soluble

Q: With “MGSDKIHHHHHHMTEGISIAVLDNDSWSLRAIARWIDGSSPLYHVIWQTTSAAEAIHRCIYTNDKPNVLLLDMALNDATGISVCTQIRKRTADIGIIGITAYDPERYKTDLALAGGQALIAKENLAHVCNKVLPIVAQGKSAEPNSFPTAKQAHDILAEQPSSFSQIKQLSPRELQVLRLYTQNNNTSEIASQLGISSNTVFSYIHRVSKKIGTKNRSEIIRLCKKYDIL” as the sequence, how does the “soluble on expression in E. coli” value read?
A: not soluble

Q: With “MSLNADTPLQLLGGLTAAEFLRDYWQRKPLLVRQAIPDFESPLSADELAGLSLEESVESRIVLEHGKTPWEMRRGPFQEEDYQHLPEQDWTLLVQAVDQFVPEVAQLLEQFRFLPSWRIDDVMISYAAPGGGVGPHFDNYDVFLLQGHGRRRWKVGQMCSSDSPLREHADLRILADFEQSDEWVLEPGDMLYLPPRLAHYGIAEDECMTYSIGFRAPSAAEVLTHFTDSLGQFLSDEERYTDAGLQPVGDDPHQIQRDALERLQGLIQEHMSDERLLLTWFGQFMTEPRYPELVAGEDIPEEELFGALEDGALLVRNPSARLAWSEIDIGLVLFASGQSVLLPGQLKELLKLVCSADALHLENLGQWLADDDARKLLAELVKQGSLEFADEEGGSHHHHHH” as the sequence, how does the “soluble on expression in E. coli” value read?
A: soluble

Q: With “MRGSHHHHHHTDPALRAENIMNNPVIGVVMCRNRLKGHATQTLQEKYLNAIIHAGGLPIALPHALAEPSLLEQLLPKLDGIYLPGSPSNVQPHLYGENGDEPDADPGRDLLSMAIINAALERRIPIFAICRGLQELVVATGGSLHRKLCEQPELLEHREDPELPVEQQYAPSHEVQVEEGGLLSALLPECSNFWVNSLHGQGAKVVSPRLRVEARSPDGLVEAVSVINHPFALGVQWHPEWNSSEYALSRILFEGFITACQHHIAEKQRLGLCGR” as the sequence, how does the “soluble on expression in E. coli” value read?
A: soluble

Q: Which “soluble on expression in E. coli” value does the source give for “MGHHHHHHSHMQHFKRTGTGTPVKRVRKAIEKSETTSEHTCQLCGGWFDTKIGLSNHVRGHLKRLGKTKWDAHKSPICVLNEMMQNEEKYEKILKALNSRRIIPRPFVAQKLASSDDFISQNVIPLEAYRNGLKTEALSVSASEEEGLNFLNEYDETKPELPSGKKNQSLTLIELLKNKRMGEERNSAISPQKIHNQTARKRFVQKCVLPLNEDSPLMYQPQKMDLTMHSALDCKQKKSRSRSGSKKKMLTLPHGADEVYILRCRFCGLVFRGPLSVQEDWIKHLQRHIVNANLPRTGAGMVEVTSLLKKPASITETSFSLLMAEAAS” here?
A: not soluble

Q: Which “soluble on expression in E. coli” value does the source give for “MTLTPEASKSVAQPPTQAPLTQEEAIASLGRYGYGWADSDVAGANAQRGLSEAVVRDISAKKNEPDWMLQSRLKALRIFDRKPIPKWGSNLDGIDFDNIKYFVRSTEKQAASWDDLPEDIRNTYDRLGIPEAEKQRLVAGVAAQYESEVVYHQIREDLEAQGVIFLDTDTGLREHPDIFKEYFGTVIPAGDNKFSALNTAVWSGGSFIYVPPGVHVDIPLQAYFRINTENMGQFERTLIIADEGSYVHYVEGCLPAGELITTADGDLRPIESIRVGDFVTGHDGRPHRVTAVQVRDLDGELFTFTPMSPANAFSVTAEHPLLAIPRDEVRVMRKERNGWKAEVNSTKLRSAEPRWIAAKDVAEGDFLIYPKPKPIPHRTVLPLEFARLAGYYLAEGHACLTNGCESLIFSFHSDEFEYVEDVRQACKSLYEKSGSVLIEEHKHSARVTVYTKAGYAAMRDNVGIGSSNKKLSDLLMRQDETFLRELVDAYVNGDGNVTRRNGAVWKRVHTTSRLWAFQLQSILARLGHYATVELRRPGGPGVIMGRNVVRKDIYQVQWTEGGRGPKQARDCGDYFAVPIKKRAVREAHEPVYNLDVENPDSYLAYGFAVHNCTAPIYKSDSLHSAVVEIIVKPHARVRYTTIQNWSNNVYNLVTKRARAEAGATMEWIDGNIGSKVTMKYPAVWMTGEHAKGEVLSVAFAGEDQHQDTGAKMLHLAPNTSSNIVSKSVARGGGRTSYRGLVQVNKGAHGSRSSVKCDALLVDTVSRSDTYPYVDIREDDVTMGHEATVSKVSENQLFYLMSRGLTEDEAMAMVVRGFVEPIAKELPMEYALELNRLIELQMEGAVG” here?
A: not soluble

Q: Which “soluble on expression in E. coli” value does the source give for “LFDRVLVAYDFSKWADRALEYAKFVVKKTGGELHIIHVSEDGDKTADLRVMEEVIGAEGIEVHVHIESGTPHKAILAKREEINATTIFMGSRGAGSVMTMILGSTSESVIRRSPVPVFVCKRGDDE” here?
A: not soluble

Q: Which “soluble on expression in E. coli” value does the source give for “MHSLYLGVVKVMAKIILVYANCVNSTAKGDFALAGQIAKDLVREKTSDDIDVVLTSTLDGIARFESLYGKAVDGRVIIEGTSVGLCALELFESVDNEVVAFIEANRCKYAPSDILKRVLSPDSKFLFIGAANQKAIATGDKFTKSWLYISHKGDQPNVYEHFDEDDSLIQSVGLGDDRLGLPSLPKVDELPEMNSTQSQKIPSGEYGFMYLAAVHGIDDVYLMNQYMSLTEMGQYVLVGEYAKQSKEVQMVLHSLQYKGSSVSLTMPQIFFHDSVDNCLMRNMVSKSSGPLVVSTGVMSSIEAMQDGKLTYYQTMSNNTQFVASYLIAVKSICSSDTTLFGSMPKLIIDLSNLLFAEKPLKESQMKEIKSLLGMSSVTSRLGEMNKRIIAKANGTVAGELLSFIGKPKTTQSHKQCISVCMSLRKSGETTSPIFDQALRRAAAWGRLFELKVLIASMSTSDLNKKDKTGNQYTALHWAVMQGHLDCARLLVKSGASVDIQDKSGKSPLHYAIKRGDKETIKLLVQAGASLEIMDDSGAKPCDGSESWVPEYIKSCYEKSGHKSSSLF” here?
A: not soluble

Q: For “EVVKRDRIRNKDRPAMQLYQPGARSRNRLCPPDDSTKSGDSAAERKQESGISHRKEGGEE”, which “soluble on expression in E. coli” value is on record?
A: soluble
